# Patent publication US8334260B2, “sFRP and peptide motifs that interact with sFRP and methods of their use” (The United States of America as represented by the …, priority 2001, dated 2012)
# T1: RANKL (Homo sapiens, UniProt O14788)
# T1 construct: For ELISA assays, recombinant soluble RANKL and TRAIL, and antibodies directed against these proteins were obtained from PeproTech; purchased PeproTech (Rocky Hill, N.J.)
# T1 sequence (O14788 140-317): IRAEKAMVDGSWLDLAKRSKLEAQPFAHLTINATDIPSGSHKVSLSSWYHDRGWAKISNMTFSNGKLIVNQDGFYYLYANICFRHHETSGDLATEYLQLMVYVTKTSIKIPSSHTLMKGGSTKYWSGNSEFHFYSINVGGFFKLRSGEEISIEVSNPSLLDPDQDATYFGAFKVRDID
# T2: RANKL (Mus musculus, UniProt O35235)
# T2 construct: For ELISA assays, recombinant soluble RANKL and TRAIL, and antibodies directed against these proteins were obtained from PeproTech; purchased PeproTech (Rocky Hill, N.J.)
# T2 sequence (O35235 158-316): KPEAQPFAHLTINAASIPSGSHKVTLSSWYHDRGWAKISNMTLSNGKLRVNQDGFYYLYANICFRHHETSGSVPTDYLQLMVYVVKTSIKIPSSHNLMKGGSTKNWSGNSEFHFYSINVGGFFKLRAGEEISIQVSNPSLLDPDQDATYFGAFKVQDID
# B1: sFRP-2: recombinant mouse sFRP-2 purified from transfected MDCK cells (protein)
# chain: LFLFGQPDFSYKRSNCKPIPANLQLCHGIEYQNMRLPNLLGHETMKEVLEQAGAWIPLVMKQCHPDTKKFLCSLFAPVCLDDLDETIQPCHSLCVQVKDRCAPVMSAFGFPWPDMLECDRFPQDNDLCIPLASSDHLLPATEEAPKVCEACKTKNEDDNDIMETLCKNDFALKIKVKEITYINRDTKIILETKSKTIYKLNGVSERDLKKSVLWLKDSLQCTCEEMNDINAPYLVMGQKQGGELVITSVKRWQKGQREFKRISRSIRKLQC
# B2: bacterially expressed CRD: cysteine-rich domain of sFRP-1, residues 38-166, expressed in bacteria (protein)
# chain: FQSDIGPYQSGRFYTKPPQCVDIPADLRLCHNVGYKKMVLPNLLEHETMAEVKQQASSWVPLLNKNCHAGTQVFLCSLFAPVCLDRPIYPCRWLCEAVRDSCEPVMQFFGFYWPEMLKCDKFPEGDVCI
# B3: sFRP-1: recombinant human secreted Frizzled-related protein-1 (protein, listed as Homo sapiens)
# chain: MGIGRTEGGRRGAALGVLLALGGASGRGLGSEYDYVSFQSDIGPYQSGRFYTKPPQCVDIPADLRLCHNVGYKKMVLPNLLEHETMAEVKQQASSWVPLLNKNCHAGTQVFLCSLFAPVCLDRPIYPCRWLCEAVRDSCEPVMQFFGFYWPEMLKCDKFPEGDVCIAMTPPNATEASKPQGTTVCPPCDNELKSEAIIEHLCASEFALRMKIKEVKKENGDKKIVPKKKKPLKLGPIKKKDLKKLVLYLKNGADCPCHQLDNLSHHFLIMGRKVKSQYLLTAIHKWDKKNKEFKNFMKKMKNHECPTFQSVFK
# Tests used:
# [1] = molecular target: T3, TRAIL (Homo sapiens, UniProt P50591); experiment: ELISA of TRAIL binding to sFRP-2; settings: ELISA format
# T3 construct: For ELISA assays, recombinant soluble RANKL and TRAIL, and antibodies directed against these proteins were obtained from PeproTech; purchased PeproTech (Rocky Hill, N.J.)
# T3 sequence (P50591 39-281 limits assumed, species assumed): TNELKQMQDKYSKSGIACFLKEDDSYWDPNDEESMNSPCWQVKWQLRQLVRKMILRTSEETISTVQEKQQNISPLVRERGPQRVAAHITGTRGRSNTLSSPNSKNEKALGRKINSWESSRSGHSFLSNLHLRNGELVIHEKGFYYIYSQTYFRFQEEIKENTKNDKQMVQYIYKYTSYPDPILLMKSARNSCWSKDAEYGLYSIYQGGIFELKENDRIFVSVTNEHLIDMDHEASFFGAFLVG
# Protocol: (§1) ELISA experiments were generally performed as previously described (Uren et al., J. Biol. Chem. 275:4374-4382, 2000), with modifications depending on the sFRP binding partner to be tested. Typically, wells were coated with 0.5 or 1 μg of sFRP-1, blocked with BSA (0.2%, 1%, or 4%) and then incubated with putative binding partner overnight at room temperature. When investigating the binding of peptide/AP chimeras, after aspiration of bacterial broths, wells were washed and incubated with p-nitrophenolphosphate (pNPP). Color development was determined at 405 nm with an ELISA reader. For competition experiments, soluble peptides were preincubated with peptide/AP chimeras in bacterial broth for 30 min at room temperature prior to transfer into ELISA wells coated with sFRP-1 or BSA. When testing RANKL binding to sFRP-1, serial dilutions of soluble RANKL were assayed in replicate. Following overnight incubation at room temperature, RANKL solutions were aspirated and bound RANKL was detected by sequential incubations with primary antibody to RANKL, secondary antibody coupled with AP and pNPP. Similar experimental designs were employed when other TNFα family members were examined for binding to sFRPs, and when sFRP-1 derivatives or sFRP-2 were the binding targets for RANKL. […]
# [2] = molecular target: T1, RANKL; experiment: ELISA of soluble RANKL binding to wells coated with sFRP-1, sFRP-1 derivatives or sFRP-2; settings: ELISA, coated wells versus BSA
# Protocol: (§2) ELISA experiments were generally performed as previously described (Uren et al., J. Biol. Chem. 275:4374-4382, 2000), with modifications depending on the sFRP binding partner to be tested. Typically, wells were coated with 0.5 or 1 μg of sFRP-1, blocked with BSA (0.2%, 1%, or 4%) and then incubated with putative binding partner overnight at room temperature. When investigating the binding of peptide/AP chimeras, after aspiration of bacterial broths, wells were washed and incubated with p-nitrophenolphosphate (pNPP). Color development was determined at 405 nm with an ELISA reader. For competition experiments, soluble peptides were preincubated with peptide/AP chimeras in bacterial broth for 30 min at room temperature prior to transfer into ELISA wells coated with sFRP-1 or BSA. When testing RANKL binding to sFRP-1, serial dilutions of soluble RANKL were assayed in replicate. Following overnight incubation at room temperature, RANKL solutions were aspirated and bound RANKL was detected by sequential incubations with primary antibody to RANKL, secondary antibody coupled with AP and pNPP. Similar experimental designs were employed when other TNFα family members were examined for binding to sFRPs, and when sFRP-1 derivatives or sFRP-2 were the binding targets for RANKL.
# (§3) The possibility that sFRP-1 (SEQ ID NO: 3) and RANKL interact directly with each other was tested using an ELISA assay. […] RANKL was then incubated in these wells and in adjacent wells that had only been treated with BSA.
# [3] = tested on: bone marrow cells; experiment: Osteoclast formation in bone marrow cells+RANKL+M-CSF; type: cell-based
# Protocol: (§4) The effect of bacterially expressed CRD was assessed in three different cell culture models of osteoclast formation. These were: (1) bone marrow cells+RANKL+M-CSF, (2) the macrophage/monocyte cell line RAW264.7+RANKL, and (3) RAW264.7+TNFα+TGFβ (Horwood et al., Journal of Immunology 166:4915-4921, 2001; Quinn et al., Journal of Bone and Mineral Research. 16, 1787-1794, 2001).
# [4] = tested on: RAW264.7 cells; experiment: RANKL-induced osteoclast formation in RAW264.7 cells; type: cell-based; settings: RAW264.7+RANKL
# Protocol: In some instances, experiments were performed either with adult mouse spleen cells or with RAW264.7 cells treated with M-CSF and RANKL as described in Quinn et al., Endocrinology 139:4424-4427, 1998. Where indicated, these assays were conducted in the presence or absence of splenic T cells. T cell fractions were prepared as described in Horwood et al., Journal of Clinical Investigation 101:595-603, 1998.
# as §4
# [5] = tested on: RAW264.7 cells; experiment: RANKL-independent (TNFα-dependent) osteoclast formation in RAW264.7+TNFα+TGFβ; type: cell-based
# Protocol: The effect of sFRP-1 was assessed upon a RANKL-independent method of osteoclast formation using the monocyte/macrophage cell line RAW264.7 (Quinn et al., Journal of Bone and Mineral Research. 16, 1787-1794, 2001) and was compared with that of osteoprotegerin (FIG. 14).
# as §4
# [6] = molecular target: TNFα (Homo sapiens, UniProt P01375); experiment: ELISA of TNFα binding to sFRP-1; settings: ELISA format
# Chain of TNFα (P01375 77-233 limits assumed, species assumed): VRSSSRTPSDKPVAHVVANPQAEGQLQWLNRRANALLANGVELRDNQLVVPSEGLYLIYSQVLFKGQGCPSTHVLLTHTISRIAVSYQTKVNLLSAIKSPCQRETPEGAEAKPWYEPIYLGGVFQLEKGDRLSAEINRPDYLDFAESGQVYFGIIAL
# Protocol: as §1
# [7] = molecular target: T2, RANKL; experiment: ELISA of soluble RANKL binding to wells coated with sFRP-1, sFRP-1 derivatives or sFRP-2; settings: RANKL variant with amino-terminal sequence beginning with residue 158
# Protocol: as §2, §3
# [8] = tested on: co-cultures of primary osteoblasts and bone marrow cells; experiment: Osteoclastogenesis co-culture of primary osteoblasts and bone marrow cells (TRAP+ cells); type: cell-based, mouse; settings: vitamin D3 (10^-8 M) and PGE2 (10^-7 M)
# Protocol: Osteoblastic cells were prepared from the calvaria of newborn mice by digestion with 0.1% collagenase (Worthington Biochemical Co., Freefold, […]) and 0.2% dispase (Godo Shusei, Tokyo, Japan). Bone marrow and spleen cells were obtained from adult and from newborn mice, respectively (Udagawa et al., J. Exp. Med. 182: 1461-1468, 1995). Osteoblastic cells were co-cultured with bone marrow or spleen cells as described previously (Udagawa et al., J. Exp. Med. 182: 1461-1468, 1995). In short, primary osteoblastic cells (2×10^4/well) and nucleated spleen cells (1×10^6/well) or marrow cells (5×10^5/well) were co-cultured in 48-well plates (Corning Glass Inc., Corning, N.Y.) with 0.4 mL of α-MEM (GIBCO/BRL, Grand Island, N.Y.) containing 10% fetal bovine serum (Cytosystems, Castle Hill, NSW, Australia) in the presence of test chemicals. Cultures were incubated in quadruplicate and cells were replenished on day 3 with fresh medium. Osteoclast formation was evaluated after culturing for 6-7 days. Adherent cells were fixed and stained for tartrate-resistant acid phosphatase (TRAP), and the number of TRAP-positive osteoclasts was scored as described (Udagawa et al., J. Exp. Med. 182: 1461-1468, 1995). For TRAP staining, adherent cells were fixed with 4% formaldehyde in PBS for 3 minutes. After treatment with ethanol-acetone (50/50, vol/vol) for 1 minute, the well surface was air dried and incubated for 10 minutes at room temperature in an acetate buffer (0.1 M sodium acetate, pH 5.0) containing 0.01% naphthol AS-MX phosphate (Sigma) as a substrate and 0.03% red violet LB salt (Sigma) as a stain for the reaction product in the presence of 50 mM sodium tartrate. TRAP-positive cells appeared dark red, and those with three or more nuclei were scored as multinucleated and considered as osteoclasts. […] CTR expression was determined either by autoradiography with ^125I-salmon calcitonin or by immunohistochemical localization using an array of antibodies we have developed as described by Quinn et al., Bone 25:1-8, 1999.
Molecule,binding to TRAIL [1],binding to RANKL [2],effect on osteoclast formation [3],effect on osteoclast formation [4],"effect on osteoclast formation ([5]; RAW264.7+TNFα+TGFβ, RANKL-independent)",binding to TNFα [6],binding to a derivative of RANKL lacking the A-C2 motif [7],effect on TNFα-dependent osteoclast formation ([5]; present during the first three days of culture),reduction of the number of multinucleated TRAP+ cells ([8]; 300 ng/mL) [%],reduction of the number of multinucleated TRAP+ cells ([8]; 1.6 ug/mL) [%],effect on osteoclast formation [8]
B1,can bind,can bind,–,–,–,–,–,–,–,–,–
B2,–,strong,mimicked the action of full-length sFRP-1 and with similar potency,mimicked the action of full-length sFRP-1 and with similar potency,mimicked the action of full-length sFRP-1 and with similar potency,–,–,–,–,–,–
B3,–,bound specifically,–,–,–,can bind,observed binding,inhibited,50,95,dose-dependent inhibitory activity
